Reference: paper PMC11332829, “Elucidating regulation of polyhydroxyalkanoate metabolism in Ralstonia eutropha: Identification of transcriptional regulators from phasin and depolymerase genes”

T1: H16_B0227 (H-NS-like DNA-binding protein) (Ralstonia eutropha H16) (UniProt Q0K4P6)
T1 sequence: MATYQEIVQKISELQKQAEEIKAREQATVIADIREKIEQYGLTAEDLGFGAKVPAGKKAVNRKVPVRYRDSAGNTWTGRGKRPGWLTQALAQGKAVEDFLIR

T2: PpiB (peptidyl-prolyl cis-trans isomerase) (Ralstonia eutropha H16?) (UniProt Q0KCB2)
T2 sequence: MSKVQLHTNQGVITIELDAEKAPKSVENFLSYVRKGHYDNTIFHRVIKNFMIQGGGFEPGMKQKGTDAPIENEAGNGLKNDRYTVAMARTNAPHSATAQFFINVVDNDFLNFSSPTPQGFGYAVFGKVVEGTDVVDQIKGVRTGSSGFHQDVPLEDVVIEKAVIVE

T3: H16_B1672 (HTH XRE-family like protein) (Ralstonia eutropha H16) (UniProt Q0K0L7)
T3 sequence: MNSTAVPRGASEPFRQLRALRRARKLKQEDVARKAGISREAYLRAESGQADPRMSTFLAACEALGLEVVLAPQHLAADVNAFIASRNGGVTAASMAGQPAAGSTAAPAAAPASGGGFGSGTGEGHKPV

T4: H16_B1672 (HTH XRE-family like protein) (Ralstonia eutropha H16, UniProt Q0K0L7 1-128)
T4 sequence: T3 sequence

B1: PphaP1 100-mer (MG0235/MG0236), EMSA (dsDNA)
DNA 1: TGGCGTCACAGCCGCTCCCGTGTATCGCCAGCAACGTTGTTTGTGCATTGCACAAAATCCACTTGACATTGGATCTGGCGCCCCTAAAATAGGAATTGTT
DNA 2: AACAATTCCTATTTTAGGGGCGCCAGATCCAATGTCAAGTGGATTTTGTGCAATGCACAAACAACGTTGCTGGCGATACACGGGAGCGGCTGTGACGCCA

How the values were obtained:
[1] = biological target: T1, H16_B0227 (H-NS-like DNA-binding protein) (Ralstonia eutropha H16); assay: EMSA; conditions: EMSA: labeled DNA in TBE/glycerin-bromophenol blue with herring sperm DNA, 15 min at 30 C, 6% native PAGE at 4 C (protein eluted in 100 mM Tris-HCl pH 8, 150 mM)
[2] = biological target: T2, PpiB (peptidyl-prolyl cis-trans isomerase) (Ralstonia eutropha H16?); assay: EMSA; conditions: EMSA: labeled DNA in TBE/glycerin-bromophenol blue with herring sperm DNA, 15 min at 30 C, 6% native PAGE at 4 C (protein eluted in 100 mM Tris-HCl pH 8, 150 mM)
[3] = biological target: T3, H16_B1672 (HTH XRE-family like protein) (Ralstonia eutropha H16); assay: EMSA; conditions: EMSA: labeled DNA in TBE/glycerin-bromophenol blue with herring sperm DNA, 15 min at 30 C, 6% native PAGE at 4 C (protein eluted in 100 mM Tris-HCl pH 8, 150 mM)
[4] = biological target: T4, H16_B1672 (HTH XRE-family like protein); assay: EMSA; conditions: EMSA: labeled DNA in TBE/glycerin-bromophenol blue with herring sperm DNA, 15 min at 30 C, 6% native PAGE at 4 C (protein eluted in 100 mM Tris-HCl pH 8, 150 mM)
[5] = biological target: T4, H16_B1672 (HTH XRE-family like protein); assay: EMSA; EMSA: labeled DNA in TBE/glycerin-bromophenol blue with herring sperm DNA, 15 min at 30 C, 6% native PAGE at 4 C (protein eluted in 100 mM Tris-HCl pH 8, 150 mM NaCl, 1 mM EDTA, 2.5 mM desthiobiotin); pull-down: crude extract, 0.5x TBE, salmon sperm DNA, 1 h at 8 C; conditions: protein: recombinant; tags: Strep-tag; chain copies: 2; label: 5'-32P on MG0235; blunt

| Molecule | binding [1] | binding [2] | other results |
| --- | --- | --- | --- |
| ATCGAATTCGGACCCGCGTCCGAGGTATCGCAGCGCCTGGCTGACATCATGCTTGAGGCGTTGCGTCCAGTGTGATGGCGGCGGCGGGATGGCTGGTCACGCCCTATCGGATCGGCGGTGAACCATCGAATTCCGGCCGTTCACGTAACAGGATGCGGAAGACCGGTACGGGGTCGCAAGCAAGCGGGCCCCGCCAGCGGCGCGGCGCTTGATGTTTGGCGTTGCAGCAAGGCCTGTCCGACATATAGTGAAATCCTGGC (double strand) [PphaZ3 PCR fragment, EMSA] | no binding | no binding | binding [3]: no binding |
| PphaZ5 PCR fragment, EMSA | – | – | Kd [4]: 1500 nM |
| ATCGGATCCGGGTGCTGCGCAATGCGGGCTTCAGCGCAGTTGGCGTGCCCGACAGCCGCATGGCCGGCTTCGTGCAAGGTGGGCGGGCGGGCGACAGGCTTCTGCCGCGGGTGCGTAGGTGGGAAGGTGGCGCTGGTGCACTGAGAAGTGCTGCGCGCGGCTCAGGTGCCGTCGATGTCGAATGGACTGGCTGCGGGAGGCTCCGGTCGAATTCGAT (double strand) [PphaZ5 PCR fragment, EMSA] | no binding | no binding | Kd [3]: 1500 nM |
| B1 | – | – | Kd [5]: 175 nM |
